# Laboratory results taken from patent publication US5648233A, “Modified tumor cytotoxic factor (TCF) and DNA encoding such” (Snow Brand Milk Products Co., Ltd., priority 1992, dated 1997).
# Values joined by “and” are separate entries in the source; they are usually repeats but may differ in a detail not shown here. Equal entries are not always repeated. Where two headings read alike, the source gives them in different places.
# Tests used:
# [1] = rat
# Experimental: Anti-TCF polyclonal antibody was dissolved in 0.1M NaHCO3 solution to a final concentration of 10 μg/mL. One hundred microliters of the antibody solution was added to each well and the plates were left overnight at room temperature. The wells were filled with 50% solution of Block Ace in H2 O, incubated for 1 hour at room temperature and washed three times with washing solution (PBS containing 0.1% Tween 20 ). Plasma samples periodically collected from the rats which were intravenously injected with TCF or the modified TCFs were diluted with normal rat serum, when necessary. TCF solutions serially diluted with normal rat serum (from 10 ng/mL) was used as the standard TCF solution. Fifty microliters of the sample solution and 50 μL of the first buffer (0.2M Tris HCl pH 7.3 containing 50% Block Ace, 0.2M NaCl, 0.1% Tween 20, 0.2% CHAPS, 20 mM Benzamidine hydrochloride, and 10 mM EDTA) was mixed and added to each well. The plates were left for 3 hours at 37° C. and washed three times with the washing buffer. One hundred microliters of the peroxidase-labeled anti-TCF antibody solution, which was 400-fold diluted with 0.1M phosphate buffer pH 7.0 containing 10% Block Ace, 0.15M NaCl, 0.1% Tween 20, 4% rat serum and 0.5% mouse IgG, was added to each well. Plates were incubated for hours at 37° C. and washed three times with the washing buffer. Subsequently, 100 μL of substrate solution (0.4 mg/mL of o-phenylene diamine dihydrochloride and 0.006% H2 O2 in 0.1M citrate-phosphate buffer, pH 4.5) was added to each well and incubated at 37° C. for 30 minutes in a dark place. The enzyme reaction was stopped by addition of 50 μL of 6N H2 SO4. The absorbance at 492 nm was measured on an immuno reader (Corona Co.). Thus concentrations of the TCF or the modified TCFs in rat serum were determined.
# Time course of plasma levels were examined by EIA in rats after the single intravenous injection of TCF and the modified TCFs. Hale Wister rats weighing about 200 g were used.
# [2] = system: Meth A sarcoma; assay: Tumor cytotoxic activity (MTT); type: cell-based; conditions: Meth A cells, 5 days, serial dilution from 50 ng/mL, FIG. 9
# Experimental: Tumor cytotoxic activities of TCF, TCF-3 and TCF-13 were measured. Meth A sarcoma was used as a target cell line. The cells were suspended in RPMI medium (GIBCO Co.) supplemented with 10% FCS at a final cell density of 2×10^4 cells per mL. Fifty microliters of the cell suspension was inoculated into each well in 96-well flat-bottomed microtiter plates. The purified TCF, TCF-3 and TCF-13 were serially diluted with RPMI medium from the concentration of 50 ng/mL, and the 50 μL of each diluted sample was added to each test well. After incubation at 37° C. for 5 days, MTT was added at a final concentration of 0.5 mg/ml and the plates were incubated at 37° C. Four hours later, 100 μL of the solution containing 10% SDS and […] was added to each well and left overnight at room temperature. Next day, the absorbance at 620 nm was measured as a parameter of the viable cell numbers in each well.
# [3] = system: normal cells; conditions: background statement; cited from earlier work
# [4] = system: tumor cells; conditions: background statement; cited from earlier work
# [5] = background statement; cited from earlier work
# [6] = single i.v. injection, 50 μg/kg, two-compartment model, Mean ± SD, *P < 0.05, **P < 0.01 vs wild-type TCF
Substance,bioavailabilities (in words) ([1]; in vivo),"AUC (in words) ([1]; in vivo, iv)","CLtotal (total clearance) ([1]; in vivo, iv)","metabolic fates (in words) ([1]; in vivo, iv)","plasma half-lives (in words) ([1]; in vivo, iv)","t1/2 α (plasma half-life of rapid phase) ([1]; in vivo, iv)","t1/2 β (plasma half-life of slower phase) ([1]; in vivo, iv)","total clearance (in words) ([1]; in vivo, iv)",tumor cytotoxic activity (in words) [2],growth stimulating activity for normal cells (in words) [3],"t1/2 α (plasma half-life of rapid phase) [1, 6]","t1/2 β (plasma half-life of slower phase) [1, 6]","CLtotal (total clearance) ([1]; single i.v. injection, 50 μg/kg, Mean ± SD, **P < 0.01 vs wild-type TCF)",cytotoxic activity against tumor cells (in words) [4],half-life [5]
TCF-3: modified TCF which lacks oligosaccharide chain 3 (Ser at 563rd replaced with Ala),larger bioavailabilities,larger AUC,18.8 ± 2.1 mL/min/kg,slower metabolic fates,prolonged,2.9 ± 0.3 min,54.2 ± 8.3 min,decreased,cytotoxic activities to Meth A cells in a dose-dependent manner,–,–,–,–,–,–
TCF: tumor cytotoxic factor derived from human fibroblast; wild-type glycoprotein with four N-linked oligosaccharide chains,–,–,–,–,–,–,–,–,cytotoxic activities to Meth A cells in a dose-dependent manner,growth stimulating activity for normal cells,2.4 ± 2.5 min and 2.4 ± 0.5 min,15.6 ± 4.6 min,51.5 ± 13.9 mL/min/kg,strong cytotoxic activity against tumor cells,approximately 2 minutes
